Assay results published in US8114412B2, “T. cruzi-derived neurotrophic agents and methods of use therefor” (priority 1999, dated 2012).
Changes are numbered by the printed parent chain. Entries after “also recorded” stand apart in the source; their conditions may differ.

B1: TS-CC-47: recombinant fragment consisting of amino acid residues 79-478 of TS (SEQ ID NO:2) (protein, listed as Trypanosoma cruzi)
chain: MVAIADARYDTSNDNSLIDTVAKYSVDDGETWETQIAIKNSRVSSVSRVVDPTVIVKGNKLYVLVGSYYSSRSYWSSHGDARDWDILLAVGEVTKSTAGGKITASIKWGSPVSLKKFFPAEMEGMHTNQFLGGAGVAIVASNGNLVYPVQVTNKKKQVFSKIFYSEDDGKTWKFGKGRSDFGCSEPVALEWEGKLIINTRVDWKRRLVYESSDMEKPWVEAVGTVSRVWGPSPKSNQPGSQSSFTAVTIEGMRVMLFTHPLNFKGRWLRDRLNLWLTDNQRIYNVGQVSIGDENSAYSSVLYKDDKLYCLHEINTDEVYSLVFARLVGELRIIKSVLRSWKNWDSHLSSICTPADPAASSSESGCGPAVTTVGLVGFLSGNASQNVWEDAYRCVNASTAN
B2: TS-Cat-47: recombinant fragment consisting of amino acid residues 79-415 of TS (SEQ ID NO:2) (protein, listed as Trypanosoma cruzi)
chain: MVAIADARYDTSNDNSLIDTVAKYSVDDGETWETQIAIKNSRVSSVSRVVDPTVIVKGNKLYVLVGSYYSSRSYWSSHGDARDWDILLAVGEVTKSTAGGKITASIKWGSPVSLKKFFPAEMEGMHTNQFLGGAGVAIVASNGNLVYPVQVTNKKKQVFSKIFYSEDDGKTWKFGKGRSDFGCSEPVALEWEGKLIINTRVDWKRRLVYESSDMEKPWVEAVGTVSRVWGPSPKSNQPGSQSSFTAVTIEGMRVMLFTHPLNFKGRWLRDRLNLWLTDNQRIYNVGQVSIGDENSAYSSVLYKDDKLYCLHEINTDEVYSLVFARLVGELRIIKSVL
B3: TS-H32 (protein, listed as Trypanosoma cruzi)
chain: KKKQVFSKIFYSEDDGKTWKFGEGRSAFGCSEAVALEWEGKLIINTRVDYRRRLVYESSDMGNTWLEAVGTLSRVWGPSPKSNQPGSQSSFTAVTIEGMRVMLFTHPLNFKGRWLRDRLNLWLTDNQRIYNVGQVSIGDENSAHSSVLYKDDKLYCLHEINSNEVYSLVFARLVGELRIIKSVLQSWKNWDSHLSSICTP
B4: TS-154: recombinant catalytically active trans-sialidase construct from clone 154 with 5 tandem repeat units (protein, listed as Trypanosoma cruzi)
chain: B3 chain with D15E, A27D, A33P, T64S, L66V, H144Y
B5: TS-F-47: recombinant TS fragment, amino acid residues 79-666 of SEQ ID NO:34 (protein, listed as Trypanosoma cruzi)
chain: GDARDWDILLAVGEVTKSTAGGKITASIKWGSPVSLKKFFPAEMEGMHTNQFLGGAGVAIVASNGNLVYPVQVTNKRKQVFSKIFYSEDDGKTWKFGKGRSDFGCSEPVALEWEGKLIINTRVDWKRRLVYESSDMEKPWVEAVGTVSRVWGPSPKSNQPGSQTSFTAVTIEGMRVMLFTHPLNFKGRCVRDRLNLWLTDNQRIYNVGQVSIGDENSAYSSVLYKDDKLYCLHEINTDEVYSLVFARLVGELRIIKSVLRSWKNWTATCPAFAPLLIQPLRRQRVVVVPLSPRLVLLAFCRQRLPKRMGGSYRCVNASTANAERVRNGLKFAGVGGGALWPVSQQGQNQRYRFANHAFTLVASVTIHEAPRAASPLLGASLDSSGGKKLLGLSYDEKHQWQPIYGSTPVTPTGSWETGKRYHLVLTMANKIGSVYIDGELLEGSGQTVVPDGRTPDISHFYVGGYKRSDMPTISHVTVNNVLLYNRRQLNTEEIRTLFLSQDLIGTEAHMDSSSDSSAHSTPSTPADSSAHSTPSTPVDSSAHSTPSTPADSSAHGTPSTPVDSSAHGTPSTPADSSAHGTPSTPVDS
B6: cruzipain: T. cruzi protease (protein, UniProt P25779 123-467, looked up)
Cruzipain: APAAVDWRARGAVTAVKDQGQCGSCWAFSAIGNVECQWFLAGHPLTNLSEQMLVSCDKTDSGCSGGLMNNAFEWIVQENNGAVYTEDSYPYASGEGISPPCTTSGHTVGATITGHVELPQDEAQIAAWLAVNGPVAVAVDASSWMTYTGGVMTSCVSEQLDHGVLLVGYNDSAAVPYWIIKNSWTTQWGEEGYIRIAKGSNQCLVKEEASSAVVGGPGPTPEPTTTTTTSAPGPSPSYFVQMSCTDAACIVGCENVTLPTGQCLLTTSGVSAIVTCGAETLTEEVFLTSTHCSGPSVRSSVPLNKCNRLLRGSVEFFCGSSSSGRLADVDRQRRHQPYHSRHRRL

Legend:
[1] = system: N18 cells; assay: Neurite outgrowth assay in N18 cells; assay type: cell-based; settings: immobilized proteins coated at 500 μg/ml, 17 hours (FIG. 3A)
Method: FIG. 3A is a graph showing that neurite outgrowth in N18 cells is induced by immobilized laminin (Ln), immobilized TS and immobilized fragments of TS. Proteins were immobilized by incubating plates which contained wells filled with solutions of the proteins (protein concentration was 500 μg/ml) at 4° C. overnight. The protein solutions were removed and the plates were further incubated with 1% BSA at room temperature for one hour. N18 cells were cultured in the coated wells in serum-free RPMI-1640/0.2% BSA for 17 hours, and neurite outgrowth was measured by phase-contrast microscopy. […] Ln, laminin; TS, purified T. cruzi trans-sialidase; 7F, recombinant TS from clone 7F; 19Y, recombinant TS from clone 19Y; TS-F, recombinant fragment consisting of amino acid residues 33-666 of TS (SEQ ID NO:2); TS-CC-47, recombinant fragment consisting of amino acid residues 79-478 of TS (SEQ ID NO:2); TS-Cat-47, recombinant fragment consisting of amino acid residues 79-415 of TS (SEQ ID NO:2); BSA, bovine serum albumin.
(§1) 96-well microtiter plates were coated overnight at 4° C. with the TS or peptides or fragments thereof, or with control proteins laminin (Ln) or bovine serum albumin (BSA) at 500 μg/ml. After removing the compounds, the plates were further incubated with 1% BSA for 1 hour at room temperature and immediately used as substratum for PC12 or N18 (Prasad, K. N., Biol Rev Camb Philos Soc, 66:431-451 (1991)) cells in serum-free RPMI/0.2% BSA. Neurite outgrowth was measured using a phase-contrast microscope 17 hours later.

[2] = system: PC12 cells; assay: Trophic factor withdrawal-induced apoptosis of PC12 cells (DAPI/TUNEL); assay type: cell-based, rat; settings: serum-free RPMI-1640/0.2% BSA, 17 hours, DAPI or TUNEL
From the text: (§2) PC12 cells were obtained from ATCC (Manassas, Va. (Accession No. CRL-1721)) and cultured on collagen-coated dishes in RPMI 1640 supplemented with 10% horse serum and 5% fetal bovine serum (Greene, L. A. and Tishler, A. S., Proc. Natl. Acad. Sci. USA, 73: 2424-2428 (1976)). For differentiation and survival experiments, cells were washed three times in serum-free RPMI/0.2% BSA, plated in the same medium in collagen-coated plastic dishes at 2×10^5/ml, without and with growth factors, TS, recombinant proteins, synthetic peptides, for the time and concentrations indicated in the Figures.
Cell staining with 4,6-diamino-2-phenylindole (DAPI). Cells were fixed with 4% formaldehyde in PBS for 5 minutes, washed with PBS, stained with 10 μg/ml DAPI (Sigma) for 2 minutes, washed with PBS, and visualized under UV light using a fluorescent microscope. About 300-400 cells were examined under the microscope to determine the percentage of apoptotic cells.
Cell DNA nick end labeling (TUNEL) (Gavrieli, Y., et al., J. Cell. Biol. 119: 493-501 (1992)) assay was performed using a kit purchased from Boehringer Mannheim as described by the manufacturer.
Protection against apoptosis of PC12 cells in serum-free medium containing a test agent (agent N)(e.g., protection induced by TS, TS fragments, NGF or other growth factors), was calculated by the formula: 100%-[(apoptosis(%) of cells kept in RPMI containing test agent N÷apoptosis (%) of cells kept in RPMI)×100%]. Testing the effect of wortmannin (Sigma) and LY294002 (Sigma) in inhibiting the neuroprotection of TS was performed following the protocol described by others (Yao and Cooper, Science, 267:2003-2006 (1995); D'Mello et al., J. Neurosci 17:1548-1560 (1997)). In brief, PC12 cells were switched from growth medium to RPMI without and with TS or various other growth factors. After 24 hr, wortmannin and LY294002 were added to the cultures. After another 24 hrs, cells were examined for apoptosis by the DAPI assay, as above.

[3] = system: PC12 cells; assay: Neurite outgrowth assay in PC12 cells; assay type: cell-based, rat; settings: neurite outgrowth assay, concentration not given
From the text: as §2, §1

[4] = Trans-sialidase assay; assay type: biochemical
Method: The trans-sialidase assay was performed as described (Scudder et al., J. Biol. Chem. 268:9886-9891 (1993)) with slight modifications. Various amounts of intact enzyme or enzyme fragments were added to 50 mM PBS, Ph 7.2, containing 15% fetal calf serum and […] of [^14C]N-acetyllactosamine (4×10^5 dpm), 50 μg BSA and 0.02% NaN3 in a volume of 60 μl. After incubation for a predetermined amount of time at room temperature, the reaction mixture was diluted to 1.0 ml with distilled water and applied to a column containing 1.0 ml Q-Sepharose equilibrated with water. Sialylated product was eluted with 1 M NaCi and quantified by scintillation counting.
TS enzymatic activity was measured by the sialylation of the acceptor ^14C-labeled N-acetyllactosamine on anion exchange resins (Scudder, P. et. al., J. Biol. Chem. 268:9886-9891 (1993)). Recombinant TSA-1, was expressed on insect sf9 cells and purified from serum-free medium by ion exchange chromatography (monoQ) and preparative SDS-PAGE (Wrightsman, R. A. et al., J. Immunol., 153:3148-3154 (1994).

[5] = system: peripheral blood mononuclear cells (PBMC); assay: IL-6 secretion by PBMC (ELISA); assay type: cell-based, human; design: IL-6 secretion by PBMC: dose or concentration left out as unconfirmed; settings: 24 hrs culture
Method: (§3) Primary cultures of human intestinal microvascular endothelial cells (HIMEC) isolated from normal jejunal mucosa/submucosal tissue were prepared as described (Strong et al., Gastroenterology 114: 1244-1256 (1998)). The HIMEC were cultured in fibronectin-coated plasticware in MCDB medium (Sigma) supplemented with 20% FBS, 90 μg/ml heparin and 50 μg/ml endothelial cell growth factor (Sigma). T-24 cells (ATCC Accession No. HTB-4) were cultured in M199 medium supplemented with 10% FBS. PBMC were purified by Ficoll-Paque gradient as described (Current Protocols in Immunology, pp 7.1.1-7.1.2). Vero cells (ATCC Accession No. CCL-81) were grown in RPMI medium with 5% Nu serum and infected with the Silvio X-10/4 of T. cruzi as described previously (Chuenkova et al., J. Exp. Med. 181: 1693-1703, (1995)).
(§4) Endothelial cells and T-24 cells were plated on 24-well plates at a density of 1×10^3 cells/well, while peripheral blood mononuclear cells (PBMC) were plated in the similar wells at 1×10^6/well. Triplicat cultures of cells were incubated test agents for a predetermined amount of time. […] Cytokines and chemokines released in the culture supernatants were measured by ELISA assay following the instructions of the manufacturer (Endogen). The cytokines tested were IL-1β, IL-4, IL-8, IL-10, IL-12, IFN-γ, TNF-α, and the chemokines RANTES and MCP-1. Negative controls were cells incubated in medium containing polymixin B at 10 μg/ml, and positive controls were cells incubated with bacterial LPS at the low ng/ml range (for PBMC or HIMEC) or in the μg/ml range for carcinoma T-24 cells. In some experiments, IL-1β, or TNFα were used as positive control for cytokine release.
TR peptides (Table 2) were synthesized at the Tufts Synthesis Facility (Boston, Mass.). Each peptide was purified by HPLC, and the number of amino acids and molecular weight of each peptide verified by mass spectrometry. Peptides were dissolved in growth medium (10% FCS in RPMI) and added at various concentrations to 1×10^6 PBMC/well in 24-well plates. After 24 hrs, IL-6 was assayed by ELISA in the conditioned supernatants.

[6] = system: human bladder carcinoma T-24 cell line; assay: IL-6 secretion by T-24 carcinoma cells (ELISA); assay type: cell-based; settings: 24 hours culture
Method: as §3, §4

| Molecule | neurite outgrowth in N18 cells [1] | protection of PC12 cells from apoptosis induced by trophic factor withdrawal [2] | neurite outgrowth in PC12 cells [3] | trans-sialidase enzymatic activity [4] | IL-6 secretion by PBMC [5] | IL-6 secretion by T-24 cells [6] |
| --- | --- | --- | --- | --- | --- | --- |
| B1 | did not substantially reduce neurite outgrowth; also recorded: active | active | – | – | – | – |
| B2 | inactive in stimulating neurite outgrowth | promoted the survival of the PC12 cells | did not promote neurite outgrowth | – | – | – |
| B3 | – | – | – | enzymatically-inactive | stimulating IL-6 secretion | stimulating IL-6 secretion |
| B4 | – | – | – | enzymatically-active | as powerful as enzymatically-inactive TS-H32 in stimulating IL-6 secretion | as powerful as enzymatically-inactive TS-H32 in stimulating IL-6 secretion |
| B5 | as effective as the native enzyme in stimulating neurite outgrowth; also recorded: active | active | – | enzymatically inactive | – | – |
| B6 | – | – | did not induce neurite extension | – | – | – |
